Measurements taken from PMC8294390 (2021).

Biological target: T1, TNFR1 (Homo sapiens, UniProt P19438)
T1 chain: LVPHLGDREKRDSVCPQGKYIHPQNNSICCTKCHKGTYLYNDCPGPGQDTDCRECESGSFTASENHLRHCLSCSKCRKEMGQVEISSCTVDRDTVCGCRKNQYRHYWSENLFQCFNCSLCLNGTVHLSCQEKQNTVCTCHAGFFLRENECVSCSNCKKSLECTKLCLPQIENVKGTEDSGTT
Assay: SPR

B1: Atrosimab (antibody)
chain 1: HVQLVQSGAEVKKPGSSVKVSCKASGYTFTDFYINWVRQAPGQGLEWIGEIVPSQGEAKYNDKFKARVTITADKSTSTAYMELSSLRSEDTAVYYCARWDFLDYWGQGTTVTVSSGTGGGSGPSVFLFPPKPKDTLMISRTPEVTCVVVDVSHEDPEVKFNWYVDGVEVHNAKTKPREEQYNSTYRVVSVLTVLHQDWLNGKEYKCKVSNKGLPSSIEKTISKAKGQPREPSVFIFPPSDEQLKSGTASVVCLVNNFYPRDIAVEWEVDNALQSGNSQESVTEQDSKDSTYSLSSTLTLSKADYEKHKVYSCSVMHEALHNHYTQKSFNRGEC
chain 2: DVQMTQSPSSLSASVGDRVTITCRSSQSLLHSNGNTYLHWYQQKPGKAPKLLIYTVSNRFSGVPSRFSGSGSGTDFTLTISSLQPEDFATYYCSQSTHVPYTFGGGTKVEIKGTGGGSGPSVFLFPPKPKDTLMISRTPEVTCVVVDVSHEDPEVKFNWYVDGVEVHNAKTKPREEQYNSTYRVVSVLTVLHQDWLNGKEYKCKVSNKGLPSSIEKTISKAKGQPREPSVFPLAPSSKSTSGGTAALGCLVKDYFPSDIAVEWESGALTSGVHTFPAVLQSSGLYSLSSVVTVPSSSLGTQTYSCSVMHEALHNHYTQKSVEPKSC
  Kd: 5.01 nM
